B1: Natural killer cell receptor 2B4 (Homo sapiens), Q9BZW8 (parent)
chain: MLGQVVTLILLLLLKVYQGKGCQGSADHVVSISGVPLQLQPNSIQTKVDSIAWKKLLPSQNGFHHILKWENGSLPSNTSNDRFSFIVKNLSLLIKAAQQQDSGLYCLEVTSISGKVQTATFQVFVFESLLPDKVEKPRLQGQGKILDRGRCQVALSCLVSRDGNVSYAWYRGSKLIQTAGNLTYLDEEVDINGTHTYTCNVSNPVSWESHTLNLTQDCQNAHQEFRFWPFLVIIVILSALFLGTLACFCVWRRKRKEKQSETSPKEFLTIYEDVKDLKTRRNHEQEQTFPGGGSTIYSMIQSQSSAPTSQEPAYTLYSLIQPSRKSGSRKRNHSPSFNSTIYEVIGKSQPKAQNPARLSRKELENFDVYS

Variants of B1 are the subject of this experiment. The conditions noted are these: with cd48_human CD48, P09326.
Chain of cd48_human CD48, P09326 (P09326 whole entry): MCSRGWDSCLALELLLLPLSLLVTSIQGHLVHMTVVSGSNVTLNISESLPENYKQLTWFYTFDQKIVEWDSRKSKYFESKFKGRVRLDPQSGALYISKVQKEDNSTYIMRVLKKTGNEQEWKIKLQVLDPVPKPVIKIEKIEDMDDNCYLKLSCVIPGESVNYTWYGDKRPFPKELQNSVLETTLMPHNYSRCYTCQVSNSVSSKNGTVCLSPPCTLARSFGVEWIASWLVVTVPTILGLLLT
Turning to K68A;E70A, the “effect of a mutation on the interaction” value was “disrupting interaction”.

For the variant E70A, the “effect of a mutation on the interaction” value is recorded as “decreasing interaction”.

Consider K68A, for which the “effect of a mutation on the interaction” value was “decreasing interaction”.

For the origin of these results see IntAct's records for PubMed 16002700.
